Measurements taken from patent CN118076384A.

Biological target: PDL1 on MDA MB-231 human breast cancer cells (human) (UniProt Q9NZQ7)
Test: flow cytometry on MDA MB-231 cells, anti-human IgG Fc secondary antibody

Chain of UniProt Q9NZQ7 (Q9NZQ7 19-290): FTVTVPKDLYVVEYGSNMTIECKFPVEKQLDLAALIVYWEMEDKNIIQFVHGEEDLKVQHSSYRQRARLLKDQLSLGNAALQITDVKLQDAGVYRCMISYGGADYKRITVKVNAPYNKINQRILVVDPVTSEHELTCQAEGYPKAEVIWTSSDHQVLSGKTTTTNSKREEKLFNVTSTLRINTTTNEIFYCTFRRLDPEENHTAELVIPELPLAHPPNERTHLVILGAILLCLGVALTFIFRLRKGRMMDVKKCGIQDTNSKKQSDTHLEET

- Kd: 0.167 nM
Substance: 德瓦鲁单抗(durvalumab) (antibody)
